# From paper PMC10279700, “Structural insights into regulation of the PEAK3 pseudokinase scaffold by 14-3-3” (Nature Communications, 2023)
# T1: endogenous 14-3-3, P62258
# T1 chain: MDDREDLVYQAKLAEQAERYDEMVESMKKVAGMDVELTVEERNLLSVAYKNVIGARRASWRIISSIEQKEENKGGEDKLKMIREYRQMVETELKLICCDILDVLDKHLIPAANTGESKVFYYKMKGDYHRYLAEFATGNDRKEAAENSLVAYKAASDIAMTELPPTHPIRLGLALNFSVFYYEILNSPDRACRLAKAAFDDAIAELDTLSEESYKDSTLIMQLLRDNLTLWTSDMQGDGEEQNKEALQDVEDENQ
# B1: FLAG-tagged full-length human PEAK3 (PEAK3-1xFLAG) (natural protein, UniProt Q6ZS72 1-473, looked up)
# chain: MSSPEPPTEPPEPDNPTWSTQPTYSNLGQIRAHLLPSKACRLRTPGSLSTNPEPLPPPLPKKILTRTQSLPTRRTLHPSSIQVQPPRRPFLGSHSVDKSQAAVGPACLPAELTFGPADAPLGLSLRDLHSPEAVHTALAARQLQGLRTIYARLRARLMGGHPGPCHPGHSFRLLDSSPCAESGDALYYRVVRAHEDAWHILVAKVPKPGADVPHPWGLELQASLSPHFNLQGLCGLVPEGTLPGAPWRGAVALAAEVPERTVAQWLAEACTQPPEEFVWAVALLLLQLSAALKFLEAWGAALVELRPENLLLVAPRGCATTGPPRLLLTDFGRVCLQPPGPPGSPGPHAPQLGSLLRALLSLAAPSTTPLAAGLELLAAQLTRLRPSASRTRGALQALLWGPGPELRGRGAPLGPWLRALGPWLRVRRGLLVLRLAERAAGGEAPSLEDWLCCEYLAEATESSMGQALALLWD
# modifications: phosphoserine at 69
# notes: PEAK3 pseudokinase (C19orf35), human, gene synthesized by GenScript; residues modelled: chain A 128-406, 419-473; chain B 130-406, 415-472; N-terminal peptides chain E 66-73 and chain P 66-72; Purifies as a homodimer, alone or in complex with an endogenous 14-3-3 heterodimer; also called C19orf35; PEAK3 homodimer; source: Expi293F, transfected, purified (G1 Flag resin, FLAG peptide elution, …)
# Columns and labels:
# [1] = target: FLAG-tagged PEAK3 R147A (human) (UniProt Q6ZS72); experiment: co-IP; FLAG-tagged PEAK3 variants transiently expressed in HEK293; anti-FLAG/protein A beads overnight at 4 °C; endogenous 14-3-3 detected with anti-pan 14-3-3 by Western blot; also after 1 h of 0.1% DMSO or PKD inhibitors CRT0066101 or CID755673 (dose-dependent decrease, not abolished)
# [2] = target: T1, endogenous 14-3-3, P62258; experiment: co-immunoprecipitation, quantified Western blot; settings: chain shown with the change; transiently expressed in HEK293 cells; 3 independent experiments; parent: est. 100; read off a plot
# [3] = target: the molecule itself; experiment: cryo-EM structure; PEAK3/14-3-3 complex co-purified from Expi293F (FLAG affinity, SEC), 7 uM, 0.1% n-Octyl-β-D-glucoside; 169,563 particles, C1, 3.1 Å
# [4] = target: B1; experiment: as above; settings: both partners purified
percent of parent [2],Molecule,other results
–,endogenous 14-3-3 (from UniProt P62258 1-255) (FLAG-tagged variant transiently expressed in HEK293),reduction in 14-3-3 association relative to WT PEAK3 [1]: 75%
0,"FLAG-tagged WT PEAK3, Q6ZS72 S69A (protein) MSSPEPPTEPPEPDNPTWSTQPTYSNLGQIRAHLLPSKACRLRTPGSLSTNPEPLPPPLPKKILTRTQALPTRRTLHPSSIQVQPPRRPFLGSHSVDKSQAAVGPACLPAELTFGPADAPLGLSLRDLHSPEAVHTALAARQLQGLRTIYARLRARLMGGHPGPCHPGHSFRLLDSSPCAESGDALYYRVVRAHEDAWHILVAKVPKPGADVPHPWGLELQASLSPHFNLQGLCGLVPEGTLPGAPWRGAVALAAEVPERTVAQWLAEACTQPPEEFVWAVALLLLQLSAALKFLEAWGAALVELRPENLLLVAPRGCATTGPPRLLLTDFGRVCLQPPGPPGSPGPHAPQLGSLLRALLSLAAPSTTPLAAGLELLAAQLTRLRPSASRTRGALQALLWGPGPELRGRGAPLGPWLRALGPWLRVRRGLLVLRLAERAAGGEAPSLEDWLCCEYLAEATESSMGQALALLWD",–
43,"FLAG-tagged WT PEAK3, Q6ZS72 K293A; W298A (protein) MSSPEPPTEPPEPDNPTWSTQPTYSNLGQIRAHLLPSKACRLRTPGSLSTNPEPLPPPLPKKILTRTQSLPTRRTLHPSSIQVQPPRRPFLGSHSVDKSQAAVGPACLPAELTFGPADAPLGLSLRDLHSPEAVHTALAARQLQGLRTIYARLRARLMGGHPGPCHPGHSFRLLDSSPCAESGDALYYRVVRAHEDAWHILVAKVPKPGADVPHPWGLELQASLSPHFNLQGLCGLVPEGTLPGAPWRGAVALAAEVPERTVAQWLAEACTQPPEEFVWAVALLLLQLSAALAFLEAAGAALVELRPENLLLVAPRGCATTGPPRLLLTDFGRVCLQPPGPPGSPGPHAPQLGSLLRALLSLAAPSTTPLAAGLELLAAQLTRLRPSASRTRGALQALLWGPGPELRGRGAPLGPWLRALGPWLRVRRGLLVLRLAERAAGGEAPSLEDWLCCEYLAEATESSMGQALALLWD",–
–,B1,stoichiometry N [3]: 2
82,"FLAG-tagged WT PEAK3, Q6ZS72 S225A (protein) MSSPEPPTEPPEPDNPTWSTQPTYSNLGQIRAHLLPSKACRLRTPGSLSTNPEPLPPPLPKKILTRTQSLPTRRTLHPSSIQVQPPRRPFLGSHSVDKSQAAVGPACLPAELTFGPADAPLGLSLRDLHSPEAVHTALAARQLQGLRTIYARLRARLMGGHPGPCHPGHSFRLLDSSPCAESGDALYYRVVRAHEDAWHILVAKVPKPGADVPHPWGLELQASLAPHFNLQGLCGLVPEGTLPGAPWRGAVALAAEVPERTVAQWLAEACTQPPEEFVWAVALLLLQLSAALKFLEAWGAALVELRPENLLLVAPRGCATTGPPRLLLTDFGRVCLQPPGPPGSPGPHAPQLGSLLRALLSLAAPSTTPLAAGLELLAAQLTRLRPSASRTRGALQALLWGPGPELRGRGAPLGPWLRALGPWLRVRRGLLVLRLAERAAGGEAPSLEDWLCCEYLAEATESSMGQALALLWD",–
62,"FLAG-tagged WT PEAK3, Q6ZS72 K293A (protein) MSSPEPPTEPPEPDNPTWSTQPTYSNLGQIRAHLLPSKACRLRTPGSLSTNPEPLPPPLPKKILTRTQSLPTRRTLHPSSIQVQPPRRPFLGSHSVDKSQAAVGPACLPAELTFGPADAPLGLSLRDLHSPEAVHTALAARQLQGLRTIYARLRARLMGGHPGPCHPGHSFRLLDSSPCAESGDALYYRVVRAHEDAWHILVAKVPKPGADVPHPWGLELQASLSPHFNLQGLCGLVPEGTLPGAPWRGAVALAAEVPERTVAQWLAEACTQPPEEFVWAVALLLLQLSAALAFLEAWGAALVELRPENLLLVAPRGCATTGPPRLLLTDFGRVCLQPPGPPGSPGPHAPQLGSLLRALLSLAAPSTTPLAAGLELLAAQLTRLRPSASRTRGALQALLWGPGPELRGRGAPLGPWLRALGPWLRVRRGLLVLRLAERAAGGEAPSLEDWLCCEYLAEATESSMGQALALLWD",–
57,"FLAG-tagged WT PEAK3, Q6ZS72 W298A (protein) MSSPEPPTEPPEPDNPTWSTQPTYSNLGQIRAHLLPSKACRLRTPGSLSTNPEPLPPPLPKKILTRTQSLPTRRTLHPSSIQVQPPRRPFLGSHSVDKSQAAVGPACLPAELTFGPADAPLGLSLRDLHSPEAVHTALAARQLQGLRTIYARLRARLMGGHPGPCHPGHSFRLLDSSPCAESGDALYYRVVRAHEDAWHILVAKVPKPGADVPHPWGLELQASLSPHFNLQGLCGLVPEGTLPGAPWRGAVALAAEVPERTVAQWLAEACTQPPEEFVWAVALLLLQLSAALKFLEAAGAALVELRPENLLLVAPRGCATTGPPRLLLTDFGRVCLQPPGPPGSPGPHAPQLGSLLRALLSLAAPSTTPLAAGLELLAAQLTRLRPSASRTRGALQALLWGPGPELRGRGAPLGPWLRALGPWLRVRRGLLVLRLAERAAGGEAPSLEDWLCCEYLAEATESSMGQALALLWD",–
–,"14-3-3β (natural protein, human (endogenous in Expi293F), UniProt P31946 1-246, looked up, 14-3-3 protein beta, human; residues 3-232 modelled in the cryo-EM structure; also called 14-3-3 beta; β isoform; source: endogenous, Expi293F, co-purified with PEAK3-1xFLAG) MTMDKSELVQKAKLAEQAERYDDMAAAMKAVTEQGHELSNEERNLLSVAYKNVVGARRSSWRVISSIEQKTERNEKKQQMGKEYREKIEAELQDICNDVLELLDKYLIPNATQPESKVFYLKMKGDYFRYLSEVASGDNKQTTVSNSQQAYQEAFEISKKEMQPTHPIRLGLALNFSVFYYEILNSPEKACSLAKTAFDEAIAELDTLNEESYKDSTLIMQLLRDNLTLWTSENQGDEGDAGEGEN",binding result [4]: binds
